The target in the assay is human FcγRIIb (CD32B) (human) (UniProt P31994). As to the kind of experiment: cell-based or functional assay.
UniProt P31994, sequence (P31994 43-310): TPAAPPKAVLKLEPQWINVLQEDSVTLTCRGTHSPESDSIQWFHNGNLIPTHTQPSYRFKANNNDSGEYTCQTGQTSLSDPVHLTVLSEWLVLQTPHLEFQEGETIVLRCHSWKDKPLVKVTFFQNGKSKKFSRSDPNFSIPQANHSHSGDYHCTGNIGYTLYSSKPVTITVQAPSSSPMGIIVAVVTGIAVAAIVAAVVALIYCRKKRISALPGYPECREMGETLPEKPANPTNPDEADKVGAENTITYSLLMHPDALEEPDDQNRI

On to rituximab F(ab')2 fragment, for which the surface accessible CD20 after 6 h culture (CLL cells) was 40%.

Values taken from US20230381310A1.
